Experimental data from the RNAGym collection of RNA variant scans (doi:10.7554/elife.90254).

B1: OR4K15 (parent)
chain: GUUAACGGUCAUAGGCCAUGGAAACUAGGAGCACCAUUUCGCUGCCAGUGAAGAAAUGAACAAAGAAAAUCUGGGCCAGGCAGGCAUCAAAAGAAAUAGUCUUGCGCUCAACCAGAAAGUCUGUAAUCAUUUUAAGGGUA

Variants of: B1
Assay: self-cleavage, relative activity (ratio to wild type); higher = more cleavage; in vitro, sequencing; the parent is a self-cleaving ribozyme

Compared with GUUAACGGUCAUAGGCCAUGGAAACUAGGAGCACCAUUUCGCUGCCAGUGGAGAAAUGAACCAAGAAAAUCUGGGCCAGGCAGGCAUCAAAAGAAAUAGUCUUGCGCUCAACCAGAAAGUCUGUAAUCAUUUUAAGGGUA [A51G A62C], GUUAACGGUCAUAGGCCAUGGAAACUAGGAGCACCAUUUCGCUGCCAGUGGAGAAAUGAACAAAGAAAAUCUGGGCCGGGCAGGCAUCAAAAGAAAUAGUCUUGCGCUCAACCAGAAAGUCUGUAAUCAUUUUAAGGGUA [A51G A78G] is lower in self-cleavage: 1.58 for the first, 0.2 for the second.

Compared with GUUAACGGUCAUAGGCCAUGGAAACUAGGAGCACCAUUUCGCUGCCAGUGGAGAAAUGAACAAAGAAAAUCUGGGCCAGGCAGGCAUCAAAAGAAAUAGUCUUGCGCUCAACCAGAAAGUCUGUAGUCAUUUUAAGGGUA [A51G A126G], GUUAACGGUCAUAGGCCAUGGAAACUAGGAGCACCAUUUCGCUGCCAGUGGAGAAAUGAACAAAGAAAAUCUGGGCCAGGCAGGCAUCAAAAGAAAUAGUCUUGCGCUCAACCAGAAGGUCUGUAAUCAUUUUAAGGGUA [A51G A118G] is higher in self-cleavage: 0.71 for the first, 1.29 for the second.

First: GUUAACGGUCAUAGGCCAUGGAAACUAGGAGCACCAUUUCGCUGCCAGUGGAGAAAUGAACAAAGAAAAUCUGGGCCAGGCAGGCAUCAAAAGAAAUAGUCUUGCGCUCAACCAGAUAGUCUGUAAUCAUUUUAAGGGUA [A51G A117U]
Second: GUUAACGGUCAUAGGCCAUGGAAACUAGGAGCACCAUUUCGCUGCCAGUGGAGAAAUGAACAAAGAAAAUCUGGGCCAGGCAGGCAUCAAAAGAAAUAGUCUUGCGCUCAACCAGAGAGUCUGUAAUCAUUUUAAGGGUA [A51G A117G]
The self-cleavage of the first is lower: 0.52 for the first, 2.07 for the second.

First: GUUAACGGUCAUAGGCCAUGGAAACUAGGAGCACCAUUUCGCUGCCAGUGGAGAAAUGAACAAAGAAAAUCUGGGCCAGGCAGGCAUCAAAAGAAAUAGUCUUGCGCUCAGCCAGAAAGUCUGUAAUCAUUUUAAGGGUA [A51G A111G]
Second: GUUAACGGUCAUAGGCCAUGGAAACUAGGAGCACCAUUUCGCUGCCAGUGGAGAAAUGAACAAAGAAAAUCUGGGCCAGGCAGGCAUCAAAAGAAAUAGUCUUGCGCUCAACCAGAAAGUCUGUAAUCGUUUUAAGGGUA [A51G A129G]
The self-cleavage of the first is lower: 0.03 for the first, 1.11 for the second.

Compared with GUUAACGGUCAUAGGCCAUGGAAACUAGGAGCACCAUUUCGCUGCCAGUGGAGAAAUGAACAAAGAAAAUCUGGGCCAGGCAGGCAUCAAAAGAAAUAGUCUUGCGCUCAACCAGAAAGUCUGUAAUCCUUUUAAGGGUA [A51G A129C], GUUAACGGUCAUAGGCCAUGGAAACUAGGAGCACCAUUUCGCUGCCAGUGGAGAAAUGAACAAAGAAAAUCUGGGCCAGGCAGGCAUCAAAAGAAAUAGUCUUGUGCUCAACCAGAAAGUCUGUAAUCAUUUUAAGGGUA [A51G C105U] is lower in self-cleavage: 0.98 for the first, 0.12 for the second.

First: GUUAACGGUCAUAGGCCAUGGAAACUAGGAGCACCAUUUCGCUGCCAGUGGAGAAAUGAACAAAGAAAAUCUGGGCUAGGCAGGCAUCAAAAGAAAUAGUCUUGCGCUCAACCAGAAAGUCUGUAAUCAUUUUAAGGGUA [A51G C77U]
Second: GUUAACGGUCAUAGGCCAUGGAAACUAGGAGCACCAUUUCGCUGCCAGUGGAGAAAUGAACAAAGAAAAUCUGGGCCAGGCAGGCAUCGAAAGAAAUAGUCUUGCGCUCAACCAGAAAGUCUGUAAUCAUUUUAAGGGUA [A51G A89G]
The self-cleavage of the first is higher: 1.46 for the first, 0.95 for the second.

Compared with GUUAACGGUCAUAGGCCAUGGAAACUAGGAGCACCAUUUCGCUGCCAGUGGAGAAAUGAACAAAGAAAAUCUGGGCCAGGCAGGCAUCUAAAGAAAUAGUCUUGCGCUCAACCAGAAAGUCUGUAAUCAUUUUAAGGGUA [A51G A89U], GUUAACGGUCAUAGGCCAUGGAAACUAGGAGCACCAUUUCGCUGCCAGUGGAGAAAUGAACAAAGAAGAUCUGGGCCAGGCAGGCAUCAAAAGAAAUAGUCUUGCGCUCAACCAGAAAGUCUGUAAUCAUUUUAAGGGUA [A51G A68G] is lower in self-cleavage: 1.41 for the first, 0.71 for the second.

Going from GUUAACGGUCAUAGGCCAUGGAAACUAGGAGCACCAUUUCGCUGCCAGUGGAGAAAUGAACAAAGAACAUCUGGGCCAGGCAGGCAUCAAAAGAAAUAGUCUUGCGCUCAACCAGAAAGUCUGUAAUCAUUUUAAGGGUA [A51G A68C] to GUUAACGGUCAUAGGCCAUGGAAACUAGGAGCACCAUUUCGCUGCCAGUGGAGAAAUGAACAAAGAAUAUCUGGGCCAGGCAGGCAUCAAAAGAAAUAGUCUUGCGCUCAACCAGAAAGUCUGUAAUCAUUUUAAGGGUA [A51G A68U], the self-cleavage rises from 1.46 to 1.9.

First: GUUAACGGUCAUAGGCCAUGGAAACUAGGAGCACCAUUUCGCUGCCAGUGGAGAAAUGAACAAAGAAAAUCUGGGCCAGGCAUGCAUCAAAAGAAAUAGUCUUGCGCUCAACCAGAAAGUCUGUAAUCAUUUUAAGGGUA [A51G G83U]
Second: GUUAACGGUCAUAGGCCAUGGAAACUAGGAGCACCAUUUCGCUGCCAGUGGAGAAAUGAACAAAGAAAAUCUGGGCCAGGCAAGCAUCAAAAGAAAUAGUCUUGCGCUCAACCAGAAAGUCUGUAAUCAUUUUAAGGGUA [A51G G83A]
The self-cleavage of the first is lower: 0.7 for the first, 1.42 for the second.

Compared with GUUAACGGUCAUAGGCCAUGGAAACUAGGAGCACCAUUUCGCUGCCAGUGGAGAAAUGAACAAAGGAAAUCUGGGCCAGGCAGGCAUCAAAAGAAAUAGUCUUGCGCUCAACCAGAAAGUCUGUAAUCAUUUUAAGGGUA [A51G A66G], GUUAACGGUCAUAGGCCAUGGAAACUAGGAGCACCAUUUCGCUGCCAGUGGAGAAAUGAACAAAGAAAAUCUGUGCCAGGCAGGCAUCAAAAGAAAUAGUCUUGCGCUCAACCAGAAAGUCUGUAAUCAUUUUAAGGGUA [A51G G74U] is lower in self-cleavage: 1.5 for the first, 0.37 for the second.

Work on GUUAACGGUCAUAGGCCAUGGAAACUAGGAGCACCAUUUCGCUGCCAGUGGAGAAAUGAACAAAGAAAAUCUGGGCCAGGCAGGCAUCAAUAGAAAUAGUCUUGCGCUCAACCAGAAAGUCUGUAAUCAUUUUAAGGGUA [A51G A91U] yielded a self-cleavage of 1.61.
